Source: patent US20260345804 (published 2026)
Numbering of substitutions follows the chain as printed. Like-named read-outs stand apart in the source and are kept apart here.

How the values were obtained:
Assay in all cases: SPR, 25C
[1] = target: T1, human IL2v G4S avi his (P1AG0879) (human)
T1 chain: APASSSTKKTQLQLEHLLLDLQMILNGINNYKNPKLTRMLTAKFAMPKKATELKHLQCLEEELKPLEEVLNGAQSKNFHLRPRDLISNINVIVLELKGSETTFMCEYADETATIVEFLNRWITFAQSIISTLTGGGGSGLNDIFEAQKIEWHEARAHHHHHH

[2] = target: huPD1-ECD_Fc-knob/hole (P1AD9704) (human)
[3] = target: huPD1-ECD_Fc-knob/hole (P1AD9704) (human); remark: listed apart in the source
[4] = target: huPD1-ECD_Fc-knob/hole (P1AD9704) (human); remark: listed apart in the source

B1: P1AF7506 OA MT204 IgG PG LALA (antibody, V domains shown)
VH: EVQLVESGGGLVQPGGSLRLSCAASGFTFSSYTLAWVRQAPGKGLEWVAAIDSSSYTYSPDTVRGRFTISRDNAKNSLYLQMNSLRAEDTAVYYCARDSNWDALDYWGQGTTVTVSS
VL: DIQMTQSPSSLSASVGDRVTITCKASQNVGTNVGWYQQKPGKAPKALIYSASFRYSGVPSRFSGSGSGTDFTLTISSLQPEDFATYYCQQYYTYPYTFGGGTKVEIKR
[1]
  Kd: 0.27 nM

B2: P1AH2052 MT204_VL1b-combo VH2 & VH6 IgG PG LALA (antibody, V domains shown)
VH: B1 VH with R64K, A74S, S77T
VL: B1 VL with K24R, N28G, A46L, R54L
[1]
  Kd: 0.995 nM

B3: P1AH2051 MT204_VL1a-combo VH2 & VH6 IgG PG LALA (antibody, V domains shown)
VH: B1 VH with R64K, A74S, S77T
VL: B1 VL with K24R, N28G, R54L
[1]
  Kd: 0.101 nM

B4: P1AH2050 MT204_VL1-combo VH2 & VH6 IgG PG LALA (antibody, V domains shown)
VH: B1 VH with R64K, A74S, S77T
VL: B1 VL with K24R, N28G
[1]
  Kd: 0.427 nM

B5: P1AG9606 PD1 IgG-IL2v aIL2 MT204 scFv-PQARK (antibody)
chain 1: EVQLLESGGGLVQPGGSLRLSCAASGFSFSSYTMSWVRQAPGKGLEWVATISGGGRDIYYPDSVKGRFTISRDNSKNTLYLQMNSLRAEDTAVYYCVLLTGRVYFALDSWGQGTLVTVSSASTKGPSVFPLAPSSKSTSGGTAALGCLVKDYFPEPVTVSWNSGALTSGVHTFPAVLQSSGLYSLSSVVTVPSSSLGTQTYICNVNHKPSNTKVDKKVEPKSCDKTHTCPPCPAPEAAGGPSVFLFPPKPKDTLMISRTPEVTCVVVDVSHEDPEVKFNWYVDGVEVHNAKTKPREEQYNSTYRVVSVLTVLHQDWLNGKEYKCKVSNKALGAPIEKTISKAKGQPREPQVCTLPPSRDELTKNQVSLSCAVKGFYPSDIAVEWESNGQPENNYKTTPPVLDSDGSFFLVSKLTVDKSRWQQGNVFSCSVMHEALHNHYTQKSLSLSPG
chain 2: DIVMTQSPDSLAVSLGERATINCKASESVDTSDNSFIHWYQQKPGQSPKLLIYRSSTLESGVPDRFSGSGSGTDFTLTISSLQAEDVAVYYCQQNYDVPWTFGQGTKVEIKRTVAAPSVFIFPPSDEQLKSGTASVVCLLNNFYPREAKVQWKVDNALQSGNSQESVTEQDSKDSTYSLSSTLTLSKADYEKHKVYACEVTHQGLSSPVTKSFNRGEC
modifications: PD1-binding arm; immunoconjugate, knob chain SEQ59 carries masked IL2v
[2]
  Kd: 0.19 nM

B6: P1AA6888 one-shot humanized PD1-0103 (antibody)
chain 1: not shown
chain 2: B5 chain 2
[3]
  Kd: 0.3 nM
[4]
  Kd: 0.2 nM

B7: P1AI0357 PD1-1030-VH_I58T (antibody, V domains shown)
VH: EVQLLESGGGLVQPGGSLRLSCAASGFSFSSYTMSWVRQAPGKGLEWVATISGGGRDTYYPDSVKGRFTISRDNSKNTLYLQMNSLRAEDTAVYYCVLLTGRVYFALDSWGQGTLVTVSS
VL: DIVMTQSPDSLAVSLGERATINCKASESVDTSDNSFIHWYQQKPGQSPKLLIYRSSTLESGVPDRFSGSGSGTDFTLTISSLQAEDVAVYYCQQNYDVPWTFGQGTKVEIKR
[3]
  Kd: 0.2 nM

B8: P1AI1648 PD1-376_VL2_VH4_I58L_D62E (antibody, V domains shown)
VH: B7 VH with A49S, T50A, T58L, D62E
VL: B7 VL with S55A
[2]
  Kd: 0.144 nM

B9: P1AI1650 PD1-376_VL2_VH4_I58T_P61A (antibody, V domains shown)
VH: B7 VH with A49S, T50A, P61A
VL: B7 VL with S55A
[2]
  Kd: 0.127 nM

B10: P1AI0360 PD1-1030-VH_Y60F_D62E (antibody, V domains shown)
VH: B7 VH with T58I, Y60F, D62E
VL: B7 VL
[3]
  Kd: 0.3 nM

B11: P1AH4159 PD1-376_VL2_7_VH4 (antibody, V domains shown)
VH: B7 VH with A49S, T50A, T58I
VL: B7 VL with S55A, L58Q
[4]
  Kd: 0.2 nM

B12: P1AI1649 PD1-376_VL2_VH4_I58T (antibody, V domains shown)
VH: B7 VH with A49S, T50A
VL: B7 VL with S55A
[2]
  Kd: 0.111 nM

B13: P1AH4158 PD1-376_VL7_VH4 (antibody, V domains shown)
VH: B7 VH with A49S, T50A, T58I
VL: B7 VL with S55E, L58Q
[4]
  Kd: 1.5 nM

B14: P1AH4161 PD1-376_VL2_VH1_2_3_4 (antibody, V domains shown)
VH: B7 VH with L5V, S28T, T33A, A49S, T50A, T58I
VL: B7 VL with S55A
[4]
  Kd: 0.4 nM

B15: P1AI0359 PD1-1030-VH_P61A (antibody, V domains shown)
VH: B7 VH with T58I, P61A
VL: B7 VL
[3]
  Kd: 0.2 nM

B16: P1AH4157 PD1-376_VL2_VH4 (antibody, V domains shown)
VH: B7 VH with A49S, T50A, T58I
VL: B7 VL with S55A
[2]
  Kd: 0.126 nM
[4]
  Kd: 0.2 nM

B17: P1AI0356 PD1-1030-VH_I58L_D62E (antibody, V domains shown)
VH: B7 VH with T58L, D62E
VL: B7 VL
[3]
  Kd: 0.2 nM

B18: P1AI1651 PD1-376_VL2_VH4_P61A (antibody, V domains shown)
VH: B7 VH with A49S, T50A, T58I, P61A
VL: B7 VL with S55A
[2]
  Kd: 0.114 nM

B19: P1AI0358 PD1-1030-VH_I58T_P61A (antibody, V domains shown)
VH: B7 VH with P61A
VL: B7 VL
[3]
  Kd: 0.3 nM

B20: P1AH4160 PD1-376_VL7_VH1_2_4 (antibody, V domains shown)
VH: B7 VH with L5V, S28T, A49S, T50A, T58I
VL: B7 VL with S55E, L58Q
[4]
  Kd: 1.2 nM

B21: P1AI1652 PD1-376_VL2_VH4_Y60F_D62E (antibody, V domains shown)
VH: B7 VH with A49S, T50A, T58I, Y60F, D62E
VL: B7 VL with S55A
[2]
  Kd: 0.162 nM
